Data on three substances can be found in US20240263193A1.

Substitutions are numbered along the chain they refer to.

Common to all, as to test: cell-based or functional assay
In assay [1] the target is Bcl-TEV IRES iADAR.
Assay [2] addresses T1, MS1(I17A).
T1 sequence (peptide): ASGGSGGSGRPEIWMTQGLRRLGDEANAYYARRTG

Assay [3] addresses T2, MS1(I17G).
T2 sequence (peptide): T1 sequence (peptide) with A26G

The target in assay [4] is T3, Bad(F).
T3 sequence (peptide): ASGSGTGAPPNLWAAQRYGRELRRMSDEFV

Assay [5] concerns the target T4, BAD(V).
T4 sequence (peptide): T3 sequence (peptide) with F29V

Assay [6] addresses T5, BAD (N-terminal BAD peptide).
T5 sequence (peptide): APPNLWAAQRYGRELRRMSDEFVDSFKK

Assay [7] has as its target T6, Bad(L).
T6 sequence (peptide): T3 sequence (peptide) with F29L

The target in assay [8] is T7, BAD(G).
T7 sequence (peptide): T3 sequence (peptide) with F29G

Chain of Bcl-xL (Q07817 4-198 limits assumed): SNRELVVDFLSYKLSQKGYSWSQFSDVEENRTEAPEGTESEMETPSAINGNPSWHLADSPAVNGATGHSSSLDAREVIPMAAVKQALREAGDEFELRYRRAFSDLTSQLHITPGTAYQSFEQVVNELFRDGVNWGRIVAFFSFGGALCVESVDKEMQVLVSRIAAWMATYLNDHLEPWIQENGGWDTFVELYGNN
Chain of Mcl-1 (Q07820 172-327 limits assumed): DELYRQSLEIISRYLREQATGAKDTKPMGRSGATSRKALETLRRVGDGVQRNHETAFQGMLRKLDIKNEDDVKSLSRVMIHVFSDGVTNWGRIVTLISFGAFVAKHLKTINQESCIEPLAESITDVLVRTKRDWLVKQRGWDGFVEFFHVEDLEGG

For the substance “TEV Protease (from UniProt P04517 2038-2271) (enzyme)”, in assay [1], the fold change of the mean RFU (mNeonGreen-to-mCherry), TEV protease against filler DNA, single-transcript IRES-iADAR, HEK cells, microscopy is 17 fold; the fold change of the mean RFU (mNeonGreen-to-mCherry), dual addition of A-1331852 and TEV protease, single-transcript IRES-iADAR, HEK cells, microscopy came to 32 fold.
In the case of Mcl-1 (from UniProt Q07820 172-327), in assay [2], the fold change of mNeonGreen/mCherry with S63845, MS1(A)-Mcl1 ADAR with unmutated DD, HEK cells, microscopy (intramolecular pair) was found to be 12 fold. The substance also yielded a fold change of mNeonGreen/mCherry with S63845, MS1(I17G)-Mcl1 ADAR with unmutated DD, HEK cells, microscopy (intramolecular pair) in assay [3] of 2.8 fold.
On to Bcl-xL (from UniProt Q07817 4-198), for which the Fold Change, 1 µM against 0 µM A-1331852, HEK cells, flow cytometry (intramolecular pair) in assay [4] came to 37 fold; in assay [5], 14.4 fold; in assay [7], 23.2 fold; in assay [8], 9.65 fold. The median ratio of mNeonGreen to mCherry, 0 µM A-1331852, HEK cells, flow cytometry (intramolecular pair) came out at 0.026 in assay [4], 0.0708 in assay [5], 0.0389 in assay [7] and 0.1 in assay [8]. Also, the median ratio of mNeonGreen to mCherry, 1 µM A-1331852, HEK cells, flow cytometry (intramolecular pair) is 0.962 in assay [4], 1.02 in assay [5], 0.903 in assay [7] and 0.968 in assay [8]. The fold change of mNeonGreen/mCherry with A-1331852, nBAD-ADAR-cBcl-xL with unmutated DD, HEK cells, microscopy (intramolecular pair) in assay [6] is 5.9 fold.
